Patent publication US20110123529A1 (published 2011)
Blank lines part the entries; values can stand above or below the binder they belong to.

Legend:
[1] = biological target: T1, human EGFR expressed on cells (Her-14 mouse fibroblasts; A431 carcinoma cells) (human, UniProt P00533 25-1210); experiment: phage ELISA on cells
T1 construct: whole, on cells; Parental NIH3T3 clone 2.2 (3T3) cells served as EGFR-negative control; also called EGFR^+ cells

[2] = biological target: T2, human MMP-12 catalytic domain (human, UniProt P39900 106-263); experiment: ELISA / dot blot on immobilized human MMP-12 catalytic domain, periplasmic extract, anti-c-myc detection
T2 construct: domain: catalytic domain; Sources: Prof; H. Tschesche (Universität Bielefeld) and Biomol Research laboratories Inc (SE 138-9090); also called human macrophage elastase
Experimental: To examine the clones selected using solid phase coated human MMP-12, plates were coated with human MMP-12 catalytic domain at a concentration of 1 μg/ml overnight at 4° C. Plates were washed 5 times with PBS/0.05% Tween-20. Wells were blocked with 1% skimmed milk for 2 hrs at room temperature. Periplasmic extracts (100 μl) were applied to the wells and incubated for 1 hour at room temperature. Plates were washed 5 times with PBS/0.05% Tween-20. Detection was performed using anti-c-myc antibody, followed by anti-mouse-HRP and ABTS/H₂O₂ as substrate. Plates were read at 405 nm after 30 minutes incubation at room temperature.
To examine the clones selected using membrane immobilized human MMP-12, 50 ng human MMP-12 catalytic domain samples were spotted on PVDF membrane as described in the manufacturers guidelines. 50 ng lysozyme was spotted as a negative control. The membranes were blocked with skimmed milk overnight at 4° C., washed 5 times with PBS and transferred to 1.5 ml tubes. Periplasmic extracts (100 μl) were tenfold diluted in 1% skimmed milk and 1 ml was applied per membrane (2 cm²) and rotated for 1 hour at room temperature. Membranes were washed 5 times with PBS/0.05% Tween-20. Detection was performed using anti-c-myc antibody, followed by anti-mouse-HRP and DAP as substrate. Membranes were incubated with substrate at room temperature until clear spots were visible.

[3] = biological target: T3, active catalytic domain of MMP 7 (UniProt P09237 95-267); experiment: dot blot, 50 ng catalytic domain on Hybond C-extra, periplasmic extract, anti-c-myc detection
T3 construct: domain: catalytic domain
T3 sequence (looked up): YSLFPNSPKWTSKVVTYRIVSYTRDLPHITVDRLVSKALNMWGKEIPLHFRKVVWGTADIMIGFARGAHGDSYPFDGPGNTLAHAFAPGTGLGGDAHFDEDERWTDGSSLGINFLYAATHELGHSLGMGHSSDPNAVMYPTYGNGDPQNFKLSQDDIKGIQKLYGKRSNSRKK
Experimental: (§1) In order to check for non specific binding to other MMPs a similar approach was followed in which 50 ng of active catalytic domain of MMP 1, 2, 3, 7, 9 and 13 (all from Biomol Research laboratories Inc) was immobilized on Hybond C-extra. The membranes were blocked with skimmed milk overnight at 4° C., washed 5 times with PBS and transferred to 1.5 ml tubes. Periplasmic extracts (100 μl) were tenfold diluted in 1% skimmed milk and 1 ml was applied per membrane (2 cm²) and rotated for 1 hour at room temperature. Membranes were washed 5 times with PBS/0.05% Tween-20. Detection was performed using anti-c-myc antibody, followed by anti-mouse-HRP and DAP as substrate. Membranes were incubated with substrate at room temperature until clear spots were visible.

[4] = biological target: T4, active catalytic domain of MMP 1 (UniProt P03956 100-269, limits assumed); experiment: as above
T4 construct: domain: catalytic domain
T4 sequence (looked up): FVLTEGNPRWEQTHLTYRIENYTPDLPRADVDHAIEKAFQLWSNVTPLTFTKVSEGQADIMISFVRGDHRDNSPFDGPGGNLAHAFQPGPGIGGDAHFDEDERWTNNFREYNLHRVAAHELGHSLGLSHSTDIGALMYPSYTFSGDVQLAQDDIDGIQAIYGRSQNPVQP
Experimental: as §1

[5] = biological target: active catalytic domain of MMP 13 (UniProt P45452 104-274); experiment: as above
Experimental: as §1

[6] = biological target: T5, active catalytic domain of MMP 3 (UniProt P08254 100-272, limits assumed); experiment: as above
T5 construct: domain: catalytic domain
Experimental: as §1

[7] = biological target: T6, active catalytic domain of MMP 9 (UniProt P14780 107-444, limits assumed); experiment: as above
T6 construct: domain: catalytic domain
Experimental: as §1

[8] = biological target: T7, active catalytic domain of MMP 2 (UniProt P08253 110-452, limits assumed); experiment: as above
T7 construct: domain: catalytic domain
Experimental: as §1

[9] = biological target: T8, human TNF-alpha (human, UniProt P01375 77-233); experiment: competition ELISA: VHH preincubated with biotinylated TNF-alpha, binding to immobilized receptor extracellular domain
T8 construct: also called TNFα; biotinylated TNF-alpha
Experimental: 100 μl of this mixture was transferred to a well of a microtiter plate, in which the extracellular domain of the receptor was immobilized.

binding result [9]: binds
B4: VHH#3E-His tag (VHH)
VHH: QVQLQESGGGLVQPGGSLRLSCAASGRTFSDHSGYTYTIGWFRQAPKEREFVARIYWSSGNTYYADSVKGRFAISRDIAKNTVDLTMNNLEPEDTAVYYCAARDGIPTSRSVESYNYWGQGTQVTVSS
notes: protein was purified by IMAC; also called TNF3E; VHH TNF3E

binding result [2]: binds
binding result [3]: no binding
binding result [4]: no binding
binding result [5]: no binding
binding result [6]: no binding
binding result [7]: no binding
binding result [8]: no binding
B5: MMP-12 P1-1 (VHH)
VHH: QVQLQESGGGLVQPGGSLRLSCVASGFTFSDYPMAWVRQAPGKGLEWISVINSGGVNTSYAASVKGRFTISRDNAKNTLFLQMNSLKPEDTAVYYCAKYSLKNEQYWRGQGTQVTVSS
notes: Tested as periplasmic extract, detected through its c-myc tag (pAX004: c-myc and hexahistidine tags)

binding result [1]: binds
B6: EGFR-B11 (VHH)
VHH: QVQLQDSGGGLVQAGGSLRLSCAASRFSSAQYAIGWFRQAPGKEREGVSYITFSGGPTGYADSVKGRFTVSRDNAKNTVYLQMNSLKPEDTAVYYCAARPYTRPGSMWVSSLYDNWGQGTQVTVSS
notes: From the internalization selection

binding result [2]: binds
binding result [3]: no binding
binding result [4]: no binding
binding result [5]: no binding
binding result [6]: no binding
binding result [7]: no binding
binding result [8]: no binding
B7: MMP-12 P1-44 (VHH)
VHH: QVQLQESGGGLVQPGGSLRLSCAASGFTFNNHWLYWVRQAQGKGLEWVSAINPGGSTVYLDSVKGRFTISRGNTKNTLYLQMNSLKSEDTAVYYCTKAMAWATDWDEYDLWGQGTQVTVSS
notes: Tested as periplasmic extract, detected through its c-myc tag

binding result [2]: binds
binding result [3]: no binding
binding result [4]: no binding
binding result [5]: no binding
binding result [6]: no binding
binding result [7]: no binding
binding result [8]: no binding
B8: MMP-12 P1-26 (VHH)
VHH: QVQLQESGGGLVRAGGSLRLSCVASGRTLSKYRMGWFRQFPGKERELVAEIEWKSSSTWYRDSVKGRFTISRDNAKNTVYLRMNSLKPEDTAVYYCAAATLGEPLVKYTYWGQGTQVTVSS
notes: as for B7

The next lines start with the binder.

B1: EGFR-F11 (VHH)
VHH: QVQLQESGGRLVQAGGSLRLSCAASEHTFRGYAIGWFRQAPGKEREFVSSITYDGTLTNYADSVTGRFTISRDNAKNTVYLQMNSLKPEDTAVYVCAAGYSYRYTTLNQYDSWGQGTQVTVSS
notes: From the internalization selection; also called clone EGFR-F11
binding result [1]: binds

B2: MMP-12 P5-29 (VHH)
VHH: QVQLQESGGGLVQAGGSLRLSCAASGRTFTVYTTGWFRQAPGKEREFVAAIDWSGSSTYYTDSVKGRFTISRDNTKNTVYLQMNSLKPEDTAVYYCAARDAIVGVTDTSGYRYWGQGTQVTVSS
notes: Selected on active MMP-12 on nitrocellulose (Hybond-C); also called clone P5-29
binding result [2]: binds

B3: MMP-12 P1-41 (VHH)
VHH: QVQLQDSGGGLVRTGDSLRLSCVVFGGTISTYAMGWFRRAPGKEREFVAAIDASGGFTEYADSVRGRFRIARDNPLSAVYLQMNSLKPEDTAFYYCAADKDRDTVVRFTTTPNEYDYWGQGTQVTVSS
notes: as for B7
binding result [2]: binds
binding result [3]: no binding
binding result [4]: no binding
binding result [5]: no binding
binding result [6]: no binding
binding result [7]: no binding
binding result [8]: no binding
